Laboratory results taken from article PMC4264339 (Virology Journal, 2014).

How the values were obtained:
[1] = target: HA protein on FJ13 virus (A/duck/Fujian/13/2002, H5N1), virus particles (Influenza A virus A/duck/Fujian/13/2002 …, UniProt Q9Q0U6, strain); experiment: ELISA; settings: one partner purified
[2] = target: HA protein of FJ13 virus in infected MDCK cells (Influenza A virus A/duck/Fujian/13/2002 …, UniProt Q9Q0U6, strain); experiment: immunostaining of cells or tissue; settings: partners not purified

B1: scFv3 secreted from DF-1 cells, c-Myc tagged (scFv, V domains shown)
VH: AVTLDESGGGLQTPGGALSLVCKASGFTFSSYDMYWVRQAPGKGLEFVAIINSGGSTSYYASAVKGRATISRDNGQSTVRLQLNNLRADDTGTYYCAKGPSAIDAWGHGTEVIVSS
VL: ALTQPSSVSANPGETVKITCSGGSSTYGYSWHQQKSPGSAPVTVVYSNDERPSDIPSRFSGSKSGSTGTLTITGVQADDEAIYYCGTYGSTDSGYVGIFGARTTLTVL
B1: binds [1]; binds [2].
